According to article PMC2756588:

Each binder was assayed against T1, Hse1, P38753 (assay: SPOT array). Details: median of control spots 1727.
T1 sequence (P38753 208-285, looked up): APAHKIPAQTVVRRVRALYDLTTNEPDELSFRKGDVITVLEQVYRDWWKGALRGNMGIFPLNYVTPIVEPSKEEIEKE

First: IFLRISINFPLNYPN
Second: PLRRTVMSLPGNHDI
The SPOT intensity of the first is higher: 143 for the first, 1 for the second.

NNQRRKPLLLNIGDH gave an SPOT intensity of 50.

These binders were tested against Sho1, P40073 (assay: SPOT array). Details: median of control spots 1148.
Sequence of Sho1, P40073 (P40073 287-367): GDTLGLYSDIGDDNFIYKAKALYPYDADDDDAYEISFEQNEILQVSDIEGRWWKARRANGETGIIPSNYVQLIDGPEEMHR

Compared with IFLRISINFPLNYPN, PLRRTVMSLPGNHDI is lower in SPOT intensity: 134 for the first, 12 for the second.

With NNQRRKPLLLNIGDH the SPOT intensity was 79.

The binders below were run against T2, Lsb1, P53281 (assay: SPOT array). Details: median of control spots 388.
T2 sequence (P53281 45-122, looked up): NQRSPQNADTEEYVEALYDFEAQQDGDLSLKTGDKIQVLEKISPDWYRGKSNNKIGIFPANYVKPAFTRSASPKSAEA

Compared with IFLRISINFPLNYPN, PLRRTVMSLPGNHDI is higher in SPOT intensity: 71 for the first, 75 for the second.

For NNQRRKPLLLNIGDH, the SPOT intensity was 0.

Each binder was assayed against Myo3, P36006 (assay: SPOT array). Details: median of control spots 468.

Compared with IFLRISINFPLNYPN, PLRRTVMSLPGNHDI is lower in SPOT intensity: 71 for the first, 23 for the second.

With NNQRRKPLLLNIGDH the SPOT intensity was 0.

Each binder was assayed against GST (assay: SPOT array). Details: median of control spots 978.

IFLRISINFPLNYPN and PLRRTVMSLPGNHDI are the same in SPOT intensity: 0 for the first, 0 for the second.

For NNQRRKPLLLNIGDH, the SPOT intensity was 0.

Each binder was assayed against T3, Fus1, P11710 (assay: SPOT array). Details: median of control spots 1200.
T3 sequence (P11710 432-512, looked up): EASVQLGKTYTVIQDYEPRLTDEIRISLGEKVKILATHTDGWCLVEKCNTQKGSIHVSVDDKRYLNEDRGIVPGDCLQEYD

Going from IFLRISINFPLNYPN to PLRRTVMSLPGNHDI, the SPOT intensity falls from 655 to 1.

NNQRRKPLLLNIGDH showed an SPOT intensity of 28.

The binders below were run against T4, Cdc25, P04821 (assay: SPOT array). Details: median of control spots 969.
T4 sequence (P04821 50-136, looked up): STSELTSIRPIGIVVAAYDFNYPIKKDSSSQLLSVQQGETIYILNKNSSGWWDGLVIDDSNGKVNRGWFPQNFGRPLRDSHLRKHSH

Going from IFLRISINFPLNYPN to PLRRTVMSLPGNHDI, the SPOT intensity falls from 91 to 16.

NNQRRKPLLLNIGDH gave an SPOT intensity of 216.

These binders were tested against T5, Bzz1-2, P38822 (assay: SPOT array). Details: median of control spots 4538.
T5 sequence (P38822 568-633, looked up): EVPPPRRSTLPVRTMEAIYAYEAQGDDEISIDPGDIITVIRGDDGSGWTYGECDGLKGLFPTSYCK

First: IFLRISINFPLNYPN
Second: PLRRTVMSLPGNHDI
The SPOT intensity of the first is higher: 70 for the first, 1 for the second.

NNQRRKPLLLNIGDH showed an SPOT intensity of 5.

Each binder was assayed against T6, Abp1, P15891 (assay: SPOT array). Details: median of control spots 935.
T6 sequence (P15891 535-592, looked up): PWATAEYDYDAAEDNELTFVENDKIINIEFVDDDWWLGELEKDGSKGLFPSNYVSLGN

Compared with IFLRISINFPLNYPN, PLRRTVMSLPGNHDI is lower in SPOT intensity: 212 for the first, 24 for the second.

With NNQRRKPLLLNIGDH the SPOT intensity was 56.

These binders were tested against T7, Lsb3, P43603 (assay: SPOT array). Details: median of control spots 406.
T7 sequence (P43603 385-451, looked up): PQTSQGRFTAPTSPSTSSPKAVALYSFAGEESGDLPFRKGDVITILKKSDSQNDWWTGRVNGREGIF

Compared with IFLRISINFPLNYPN, PLRRTVMSLPGNHDI is lower in SPOT intensity: 10 for the first, 0 for the second.

Work on NNQRRKPLLLNIGDH yielded an SPOT intensity of 0.

What follows are binders tested against T8, Hof1, Q05080 (assay: SPOT array). Details: median of control spots 4086.
T8 sequence (Q05080 590-669, looked up): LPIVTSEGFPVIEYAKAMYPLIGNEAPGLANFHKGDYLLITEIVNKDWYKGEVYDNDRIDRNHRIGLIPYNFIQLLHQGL

Going from IFLRISINFPLNYPN to PLRRTVMSLPGNHDI, the SPOT intensity falls from 15 to 0.

Work on NNQRRKPLLLNIGDH yielded an SPOT intensity of 18.

What follows are binders tested against T9, Bbc1, P47068 (assay: SPOT array). Details: median of control spots 796.
T9 sequence (P47068 1-78, looked up): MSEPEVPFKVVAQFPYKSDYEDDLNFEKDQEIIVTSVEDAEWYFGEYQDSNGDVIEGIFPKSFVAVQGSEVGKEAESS

Compared with IFLRISINFPLNYPN, PLRRTVMSLPGNHDI is lower in SPOT intensity: 192 for the first, 0 for the second.

NNQRRKPLLLNIGDH gave an SPOT intensity of 11.

Each binder was assayed against T10, Boi1, P38041 (assay: SPOT array). Details: median of control spots 1162.
T10 sequence (P38041 1-86, looked up): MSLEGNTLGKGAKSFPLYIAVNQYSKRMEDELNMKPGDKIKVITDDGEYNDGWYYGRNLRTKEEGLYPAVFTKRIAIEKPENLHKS

First: IFLRISINFPLNYPN
Second: PLRRTVMSLPGNHDI
The SPOT intensity of the first is higher: 24 for the first, 0 for the second.

Work on NNQRRKPLLLNIGDH yielded an SPOT intensity of 5.

What follows are binders tested against T11, Pin3, Q06449 (assay: SPOT array). Details: median of control spots 2171.
T11 sequence (Q06449 53-122, looked up): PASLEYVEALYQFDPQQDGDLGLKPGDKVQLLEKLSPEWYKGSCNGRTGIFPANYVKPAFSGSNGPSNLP

Going from IFLRISINFPLNYPN to PLRRTVMSLPGNHDI, the SPOT intensity falls from 101 to 72.

NNQRRKPLLLNIGDH gave an SPOT intensity of 0.

The binders below were run against Rvs167, P39743 (assay: SPOT array). Details: median of control spots 2707.
Sequence of Rvs167, P39743 (P39743 419-482): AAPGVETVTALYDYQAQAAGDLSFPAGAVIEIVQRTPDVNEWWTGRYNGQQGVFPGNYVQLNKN

Compared with IFLRISINFPLNYPN, PLRRTVMSLPGNHDI is lower in SPOT intensity: 1 for the first, 0 for the second.

For NNQRRKPLLLNIGDH, the SPOT intensity was 0.

The binders below were run against T12, Sla1-3, P32790 (assay: SPOT array). Details: median of control spots 5475.
T12 sequence (P32790 344-424, looked up): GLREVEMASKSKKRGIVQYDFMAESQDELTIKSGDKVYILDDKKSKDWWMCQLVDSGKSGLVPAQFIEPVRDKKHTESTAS

Compared with IFLRISINFPLNYPN, PLRRTVMSLPGNHDI is lower in SPOT intensity: 199 for the first, 0 for the second.

NNQRRKPLLLNIGDH showed an SPOT intensity of 138.

Each binder was assayed against T13, Lsb4, P32793 (assay: SPOT array). Details: median of control spots 397.
T13 sequence (P32793 402-468, looked up): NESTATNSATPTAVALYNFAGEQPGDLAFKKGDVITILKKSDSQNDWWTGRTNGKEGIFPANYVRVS

Going from IFLRISINFPLNYPN to PLRRTVMSLPGNHDI, the SPOT intensity falls from 14 to 0.

With NNQRRKPLLLNIGDH the SPOT intensity was 0.

Each binder was assayed against T14, Nbp2, Q12163 (assay: SPOT array). Details: median of control spots 357.
T14 sequence (Q12163 103-180, looked up): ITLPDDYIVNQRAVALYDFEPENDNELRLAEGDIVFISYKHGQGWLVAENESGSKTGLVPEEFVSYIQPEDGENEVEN

First: IFLRISINFPLNYPN
Second: PLRRTVMSLPGNHDI
The SPOT intensity of the first is higher: 74 for the first, 18 for the second.

Work on NNQRRKPLLLNIGDH yielded an SPOT intensity of 42.

What follows are binders tested against T15, Boi2, P39969 (assay: SPOT array). Details: median of control spots 1161.
T15 sequence (P39969 32-116, looked up): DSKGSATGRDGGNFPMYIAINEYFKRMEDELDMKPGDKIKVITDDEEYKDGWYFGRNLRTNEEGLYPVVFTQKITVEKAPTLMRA

Compared with IFLRISINFPLNYPN, PLRRTVMSLPGNHDI is lower in SPOT intensity: 3 for the first, 0 for the second.

NNQRRKPLLLNIGDH gave an SPOT intensity of 1.

These binders were tested against T16, Sla1-2, P32790 (assay: SPOT array). Details: median of control spots 712.
T16 sequence (P32790 60-140, looked up): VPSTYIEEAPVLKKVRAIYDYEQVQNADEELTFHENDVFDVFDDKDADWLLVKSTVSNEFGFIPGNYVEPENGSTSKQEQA

First: IFLRISINFPLNYPN
Second: PLRRTVMSLPGNHDI
The SPOT intensity of the first is higher: 12 for the first, 3 for the second.

NNQRRKPLLLNIGDH gave an SPOT intensity of 0.

These binders were tested against T17, Bud14, P27637 (assay: SPOT array). Details: median of control spots 956.
T17 sequence (P27637 247-328, looked up): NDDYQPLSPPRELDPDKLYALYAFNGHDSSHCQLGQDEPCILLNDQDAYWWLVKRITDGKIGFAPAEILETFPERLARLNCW

First: IFLRISINFPLNYPN
Second: PLRRTVMSLPGNHDI
The SPOT intensity of the first is higher: 18 for the first, 2 for the second.

NNQRRKPLLLNIGDH was tested, and the SPOT intensity was 17.

Each binder was assayed against T18, Bzz1-1, P38822 (assay: SPOT array). Details: median of control spots 4446.
T18 sequence (P38822 478-572, looked up): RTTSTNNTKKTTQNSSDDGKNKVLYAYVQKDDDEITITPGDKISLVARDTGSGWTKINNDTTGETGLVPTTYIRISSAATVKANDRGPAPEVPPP

First: IFLRISINFPLNYPN
Second: PLRRTVMSLPGNHDI
The SPOT intensity of the first is higher: 6 for the first, 1 for the second.

In the case of NNQRRKPLLLNIGDH, the SPOT intensity is reported as 0.

What follows are binders tested against T19, Pex13, P80667 (assay: SPOT array). Details: median of control spots 1341.
T19 sequence (P80667 295-386, looked up): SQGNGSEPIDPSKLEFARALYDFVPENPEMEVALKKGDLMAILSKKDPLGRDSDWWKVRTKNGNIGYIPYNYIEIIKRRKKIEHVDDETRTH

First: IFLRISINFPLNYPN
Second: PLRRTVMSLPGNHDI
The SPOT intensity of the first is higher: 76 for the first, 31 for the second.

In the case of NNQRRKPLLLNIGDH, the SPOT intensity is reported as 0.

These binders were tested against Bem1-1, P29366 (assay: SPOT array). Details: median of control spots 4282.
Sequence of Bem1-1, P29366 (P29366 55-141): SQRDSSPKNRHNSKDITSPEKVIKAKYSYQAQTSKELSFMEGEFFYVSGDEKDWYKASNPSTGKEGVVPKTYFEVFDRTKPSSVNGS

First: IFLRISINFPLNYPN
Second: PLRRTVMSLPGNHDI
The SPOT intensity of the first is higher: 8 for the first, 1 for the second.

Binder NNQRRKPLLLNIGDH has an SPOT intensity of 0.

The binders below were run against T20, Cyk3, Q07533 (assay: SPOT array). Details: median of control spots 1451.
T20 sequence (Q07533 1-83, looked up): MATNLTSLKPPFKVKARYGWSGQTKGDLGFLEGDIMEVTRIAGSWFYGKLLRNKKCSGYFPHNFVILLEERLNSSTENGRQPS

First: IFLRISINFPLNYPN
Second: PLRRTVMSLPGNHDI
The SPOT intensity of the first is higher: 5 for the first, 0 for the second.

NNQRRKPLLLNIGDH showed an SPOT intensity of 1.

These binders were tested against Bem1-2, P29366 (assay: SPOT array). Details: median of control spots 4347.
Sequence of Bem1-2, P29366 (P29366 139-227): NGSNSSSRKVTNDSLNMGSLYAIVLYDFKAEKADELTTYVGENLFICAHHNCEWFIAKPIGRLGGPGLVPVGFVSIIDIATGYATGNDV

Compared with IFLRISINFPLNYPN, PLRRTVMSLPGNHDI is higher in SPOT intensity: 3 for the first, 6 for the second.

Work on NNQRRKPLLLNIGDH yielded an SPOT intensity of 25.

What follows are binders tested against T21, Myo5, Q04439 (assay: SPOT array). Details: median of control spots 471.
T21 sequence (Q04439 1072-1160, looked up): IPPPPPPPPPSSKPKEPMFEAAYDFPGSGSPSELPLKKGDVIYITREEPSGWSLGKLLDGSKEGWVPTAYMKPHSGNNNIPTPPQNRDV

First: IFLRISINFPLNYPN
Second: PLRRTVMSLPGNHDI
The SPOT intensity of the first is higher: 15 for the first, 12 for the second.

For NNQRRKPLLLNIGDH, the SPOT intensity was 0.
